Data published in the supplement of paper PMC7125110.
± gives the standard error. For some of these results: Variants at the floor of the assay were thinned out.

B1: glmS ribozyme (parent)
chain: AUAAAAGCGCCAGAACUACAGAAAUGUAGUUGACGAGGAGGAGGUUUAUCGAAUUUUCGGCGGAUGCCUCCAAA

Tests used:
Conditions in all cases: with glucosamine-6-phosphate
[1] = variants of: B1; test: kcat; higher = faster cleavage; RNA array
Procedure, shortened: (§1)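 Glucosamine-6-phosphate, from 40 μM to 10 mM in HEPES/KCl/Mg(OAc)2 buffer, was flowed over sequenced MiSeq chips carrying barcoded ribozyme variants transcribed in situ by E. coli RNA polymerase. A hybridised Cy3 probe tracked the variants at 37 °C as tiles were imaged over ~14 h. kobs, kcat and KM were obtained by fitting normalised per-tile medians to exponential decays and then applying weighted Michaelis–Menten fits across concentrations.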

[2] = variants of: B1; test: KM; higher = weaker cofactor use; RNA array
Procedure, shortened: as §1

[3] = variants of: B1; test: self-cleavage kobs at 40 uM GlcN6P; higher = faster cleavage; RNA array
Procedure, shortened: as §1

[4] = variants of: B1; test: self-cleavage kobs at 160 uM GlcN6P; higher = faster cleavage; RNA array
Procedure, shortened: as §1

[5] = variants of: B1; test: self-cleavage kobs at 640 uM GlcN6P; higher = faster cleavage; RNA array
Procedure, shortened: as §1

[6] = variants of: B1; test: self-cleavage kobs at 2500 uM GlcN6P; higher = faster cleavage; RNA array
Procedure, shortened: as §1

[7] = variants of: B1; test: self-cleavage kobs at 10000 uM GlcN6P; higher = faster cleavage; RNA array
Procedure, shortened: as §1

Variant | kcat [1] | KM [2] | self-cleavage kobs at 40 uM GlcN6P [3] | self-cleavage kobs at 160 uM GlcN6P [4] | self-cleavage kobs at 640 uM GlcN6P [5] | self-cleavage kobs at 2500 uM GlcN6P [6] | self-cleavage kobs at 10000 uM GlcN6P [7]
C11U A15G | 0.00211 ± 0.00043 s⁻¹ | 1010 ± 320 µM | 0.000103 ± 1.4e-05 s⁻¹ | 0.000249 ± 4.3e-05 s⁻¹ | 0.000746 ± 8.9e-05 s⁻¹ | 0.00141 ± 0.00022 s⁻¹ | 0.0023 ± 0.00037 s⁻¹
U31G A36C | < 1e-05 s⁻¹ | – | – | < 1e-05 s⁻¹ | – | – | < 1e-05 s⁻¹
A15U A48C | 2.45e-05 ± 3.9e-06 s⁻¹ | – | – | – | – | – | –
U30A A48C | 9.77e-05 ± 4.8e-06 s⁻¹ | – | – | – | – | – | 4.29e-05 ± 8.1e-06 s⁻¹
A52U A64G C68U | 6.78e-05 ± 4.7e-06 s⁻¹ | 741 ± 230 µM | – | – | – | 5.62e-05 ± 2.2e-05 s⁻¹ | 6.09e-05 ± 2.2e-05 s⁻¹
A14U G41A | 0.000406 ± 0.00011 s⁻¹ | – | – | – | 9.05e-05 ± 2e-05 s⁻¹ | 0.000422 ± 8.6e-05 s⁻¹ | 0.000317 ± 5e-05 s⁻¹
G41U A53U | 0.00104 ± 0.00026 s⁻¹ | 889 ± 390 µM | 9.28e-05 ± 2e-05 s⁻¹ | 0.000145 ± 2.2e-05 s⁻¹ | 0.000413 ± 8.1e-05 s⁻¹ | 0.000697 ± 0.0001 s⁻¹ | 0.00119 ± 0.00021 s⁻¹
A48U C70U | 0.000821 ± 0.00021 s⁻¹ | 2160 ± 900 µM | – | 5.07e-05 ± 8e-06 s⁻¹ | 0.000334 ± 5.5e-05 s⁻¹ | 0.000416 ± 6.2e-05 s⁻¹ | 0.000671 ± 9.3e-05 s⁻¹
A14C U54C | 0.00767 ± 0.0019 s⁻¹ | 3550 ± 1100 µM | 0.000111 ± 1.2e-05 s⁻¹ | 0.000296 ± 4.4e-05 s⁻¹ | 0.000989 ± 0.00014 s⁻¹ | 0.00305 ± 0.00048 s⁻¹ | 0.00592 ± 0.00066 s⁻¹
A39G U54C | 0.0135 ± 0.004 s⁻¹ | 759 ± 340 µM | 0.000807 ± 0.00031 s⁻¹ | 0.00183 ± 0.0008 s⁻¹ | 0.00774 ± 0.0024 s⁻¹ | 0.00946 ± 0.0035 s⁻¹ | –
A42U U65G | 0.000343 ± 2.8e-05 s⁻¹ | 3030 ± 500 µM | – | – | 5.7e-05 ± 1e-05 s⁻¹ | 0.000165 ± 1.9e-05 s⁻¹ | 0.000257 ± 2.8e-05 s⁻¹
A42G C71G | 0.00124 ± 0.0003 s⁻¹ | 510 ± 230 µM | 0.000167 ± 3.5e-05 s⁻¹ | 0.000264 ± 4.3e-05 s⁻¹ | 0.000668 ± 8.8e-05 s⁻¹ | 0.000941 ± 0.00016 s⁻¹ | 0.00158 ± 0.0003 s⁻¹
G51A G62U | < 1e-05 s⁻¹ | – | – | < 1e-05 s⁻¹ | – | – | –
A15U U31G | 0.00129 ± 0.00024 s⁻¹ | 2960 ± 980 µM | 1.82e-05 ± 8.3e-06 s⁻¹ | 0.000104 ± 2.2e-05 s⁻¹ | 0.000193 ± 3.7e-05 s⁻¹ | 0.000572 ± 9.4e-05 s⁻¹ | 0.00102 ± 0.00012 s⁻¹
U31C A33C | < 1e-05 s⁻¹ | 5010 ± 1800 µM | < 1e-05 s⁻¹ | < 1e-05 s⁻¹ | – | – | –
G32A G59A | 1.74e-05 ± 3.1e-06 s⁻¹ | – | – | < 1e-05 s⁻¹ | – | – | –

Variant | kcat [1] | KM [2] | self-cleavage kobs at 40 uM GlcN6P [3] | self-cleavage kobs at 160 uM GlcN6P [4] | self-cleavage kobs at 640 uM GlcN6P [5] | self-cleavage kobs at 2500 uM GlcN6P [6] | self-cleavage kobs at 10000 uM GlcN6P [7]
A48C | 0.000456 ± 3.9e-05 s⁻¹ | 2180 ± 390 µM | – | 2.69e-05 ± 2.4e-06 s⁻¹ | 9.91e-05 ± 2.7e-06 s⁻¹ | 0.000279 ± 6.6e-06 s⁻¹ | 0.000362 ± 6.6e-06 s⁻¹
C8A G35U | < 1e-05 s⁻¹ | – | – | – | – | < 1e-05 s⁻¹ | < 1e-05 s⁻¹
C10A U57A | < 1e-05 s⁻¹ | – | – | – | < 1e-05 s⁻¹ | – | –
A6U | 0.000447 ± 1.4e-05 s⁻¹ | 2740 ± 150 µM | – | 2.53e-05 ± 2.3e-06 s⁻¹ | 8.33e-05 ± 1.6e-06 s⁻¹ | 0.00022 ± 4e-06 s⁻¹ | 0.000346 ± 6.3e-06 s⁻¹
A53G G66C | 0.000985 ± 5.6e-05 s⁻¹ | 1230 ± 190 µM | – | 0.000121 ± 5e-05 s⁻¹ | – | 0.000619 ± 0.00014 s⁻¹ | 0.000909 ± 0.00017 s⁻¹
A12C U30G | 0.00614 ± 0.0015 s⁻¹ | 5240 ± 1800 µM | 6.93e-05 ± 1.4e-05 s⁻¹ | 0.000166 ± 3.1e-05 s⁻¹ | 0.000671 ± 0.00015 s⁻¹ | 0.00164 ± 0.00034 s⁻¹ | 0.00422 ± 0.00051 s⁻¹
U57G C68U | 3.41e-05 ± 1.5e-05 s⁻¹ | – | < 1e-05 s⁻¹ | – | 3.46e-05 ± 1.4e-05 s⁻¹ | 6.22e-05 ± 1.2e-05 s⁻¹ | 1.92e-05 ± 8.6e-06 s⁻¹
A6G A39C | 0.00012 ± 4e-06 s⁻¹ | 1580 ± 180 µM | – | – | 3.27e-05 ± 8.5e-06 s⁻¹ | 7.92e-05 ± 1.4e-05 s⁻¹ | 0.000103 ± 8.7e-06 s⁻¹
A15C C70A C71A | 3.7e-05 ± 3.6e-06 s⁻¹ | 98.6 ± 41 µM | – | – | – | – | –
A14C G32C | 0.000467 ± 2.4e-05 s⁻¹ | 5350 ± 480 µM | – | – | 4.87e-05 ± 1.2e-05 s⁻¹ | 0.000149 ± 2.1e-05 s⁻¹ | 0.000304 ± 3.5e-05 s⁻¹
C16U G32U | 0.0024 ± 0.00062 s⁻¹ | 8100 ± 2900 µM | – | 4.18e-05 ± 1e-05 s⁻¹ | 0.000214 ± 3.2e-05 s⁻¹ | 0.000519 ± 5.8e-05 s⁻¹ | 0.00137 ± 0.00015 s⁻¹
A42G U56C | 0.00693 ± 0.0014 s⁻¹ | 3180 ± 860 µM | 7.76e-05 ± 1.5e-05 s⁻¹ | 0.000469 ± 8.9e-05 s⁻¹ | 0.00106 ± 0.00018 s⁻¹ | 0.00317 ± 0.0005 s⁻¹ | 0.00522 ± 0.0008 s⁻¹
G51A C71G | 2.05e-05 ± 3.5e-06 s⁻¹ | – | – | – | – | – | –
A52U U56C | 2.72e-05 ± 1.5e-06 s⁻¹ | 1210 ± 330 µM | – | – | – | – | –
C11A U55G | 0.000167 ± 5.3e-05 s⁻¹ | – | – | – | 3.28e-05 ± 1.1e-05 s⁻¹ | 0.000159 ± 2.4e-05 s⁻¹ | 0.000125 ± 2.1e-05 s⁻¹
A15C G37A | 0.000686 ± 9.5e-05 s⁻¹ | 4650 ± 1200 µM | – | – | 9.31e-05 ± 1.5e-05 s⁻¹ | 0.000226 ± 3.7e-05 s⁻¹ | 0.000471 ± 4.5e-05 s⁻¹
